Reference: publication PMC11077089, “Molecular basis of A. thaliana KEOPS complex in biosynthesizing tRNA t6A”

Experiments:
Assay in all cases: EMSA; 1:5 RNA:protein; MST: 20 mM PBS pH 7.5, 300 mM NaCl, 0.05% Tween 20, 25 C, 50 nM RNA; EMSA: 20 mM Tris-HCl pH 7.5, 300 mM NaCl, 5 mM b-mercaptoethanol, 20% glycerol, agarose gel in Tris-glycine pH 8.0 (8.5 for FAM-RNA), 4 C
Details in all cases: protein: recombinant;recombinant;recombinant;recombinant; tags: ;none (6His on partner CGI121);6His (C-term);6His (C-term); chain copies: 2;2;2;2; label: 5' 6-FAM; tRNA cloverleaf
[1] = biological target: T1, KAE1 Y305A;BUD32;CGI121;PCC1 (Arabidopsis thaliana;Arabidopsis …, UniProt O49653;Q94K14;Q6NMZ4;Q8GWD7 1-353;1-226;1-172;1-96, Y305A|||)
T1 sequence 1: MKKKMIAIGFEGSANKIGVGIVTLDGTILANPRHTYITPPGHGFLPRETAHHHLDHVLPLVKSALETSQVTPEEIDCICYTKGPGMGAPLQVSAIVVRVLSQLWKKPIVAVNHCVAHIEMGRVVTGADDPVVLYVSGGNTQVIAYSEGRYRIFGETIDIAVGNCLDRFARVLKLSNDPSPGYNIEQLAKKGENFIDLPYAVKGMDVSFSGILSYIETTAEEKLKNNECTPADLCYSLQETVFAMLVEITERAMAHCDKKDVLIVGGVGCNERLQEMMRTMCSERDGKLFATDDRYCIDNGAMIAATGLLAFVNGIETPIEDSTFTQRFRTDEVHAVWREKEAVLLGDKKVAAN
T1 sequence 2: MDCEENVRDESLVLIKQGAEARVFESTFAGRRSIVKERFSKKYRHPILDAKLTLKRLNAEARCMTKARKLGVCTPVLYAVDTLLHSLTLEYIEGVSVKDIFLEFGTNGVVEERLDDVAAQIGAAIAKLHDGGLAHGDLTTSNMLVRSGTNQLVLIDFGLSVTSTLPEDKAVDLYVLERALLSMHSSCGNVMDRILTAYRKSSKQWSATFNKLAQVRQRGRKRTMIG
T1 sequence 3: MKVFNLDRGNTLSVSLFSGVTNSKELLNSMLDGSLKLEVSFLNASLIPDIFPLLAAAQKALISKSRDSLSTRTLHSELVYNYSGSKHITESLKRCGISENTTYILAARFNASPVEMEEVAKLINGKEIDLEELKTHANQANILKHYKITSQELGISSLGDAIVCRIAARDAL
T1 sequence 4: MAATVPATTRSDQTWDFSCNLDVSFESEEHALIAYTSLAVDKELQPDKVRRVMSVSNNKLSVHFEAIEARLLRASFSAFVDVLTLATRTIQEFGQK

[2] = biological target: T2, KAE1 K202R;BUD32;CGI121;PCC1 (Arabidopsis thaliana;Arabidopsis …, UniProt O49653;Q94K14;Q6NMZ4;Q8GWD7 1-353;1-226;1-172;1-96, K202R|||)
T2 sequence 1: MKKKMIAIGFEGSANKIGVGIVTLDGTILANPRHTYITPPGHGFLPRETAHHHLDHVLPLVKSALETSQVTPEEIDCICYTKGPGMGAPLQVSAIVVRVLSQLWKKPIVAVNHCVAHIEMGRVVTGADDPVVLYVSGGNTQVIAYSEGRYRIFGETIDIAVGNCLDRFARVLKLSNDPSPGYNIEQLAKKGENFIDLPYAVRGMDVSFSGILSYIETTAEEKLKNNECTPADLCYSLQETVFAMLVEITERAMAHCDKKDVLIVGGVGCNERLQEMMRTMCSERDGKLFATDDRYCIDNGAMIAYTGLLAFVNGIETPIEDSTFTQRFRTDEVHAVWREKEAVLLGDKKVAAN
T2 sequence 2: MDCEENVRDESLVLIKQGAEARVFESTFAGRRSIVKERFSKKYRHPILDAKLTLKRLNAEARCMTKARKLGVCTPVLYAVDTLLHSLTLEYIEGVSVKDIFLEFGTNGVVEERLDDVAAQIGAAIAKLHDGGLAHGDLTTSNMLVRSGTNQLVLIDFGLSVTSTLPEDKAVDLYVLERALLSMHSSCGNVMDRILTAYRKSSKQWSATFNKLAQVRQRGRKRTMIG
T2 sequence 3: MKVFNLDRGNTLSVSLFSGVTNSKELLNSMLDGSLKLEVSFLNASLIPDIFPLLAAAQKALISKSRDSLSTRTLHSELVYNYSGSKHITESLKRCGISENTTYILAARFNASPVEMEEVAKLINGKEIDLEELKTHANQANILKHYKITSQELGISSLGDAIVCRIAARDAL
T2 sequence 4: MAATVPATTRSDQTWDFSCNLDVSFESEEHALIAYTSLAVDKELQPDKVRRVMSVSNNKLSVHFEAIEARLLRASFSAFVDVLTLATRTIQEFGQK

[3] = biological target: T3, KAE1 R284C;BUD32;CGI121;PCC1 (Arabidopsis thaliana;Arabidopsis …, UniProt O49653;Q94K14;Q6NMZ4;Q8GWD7 1-353;1-226;1-172;1-96, R284C|||)
T3 sequence 1: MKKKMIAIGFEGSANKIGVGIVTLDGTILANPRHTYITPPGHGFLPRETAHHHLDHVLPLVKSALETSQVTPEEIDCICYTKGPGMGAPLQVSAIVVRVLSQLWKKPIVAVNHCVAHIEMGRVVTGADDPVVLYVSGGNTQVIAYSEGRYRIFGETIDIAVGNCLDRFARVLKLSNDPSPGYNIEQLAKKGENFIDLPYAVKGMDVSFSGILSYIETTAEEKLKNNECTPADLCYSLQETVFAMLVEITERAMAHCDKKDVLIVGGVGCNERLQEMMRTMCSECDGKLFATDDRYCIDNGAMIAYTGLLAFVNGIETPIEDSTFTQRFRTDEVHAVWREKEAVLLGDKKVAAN
T3 sequence 2: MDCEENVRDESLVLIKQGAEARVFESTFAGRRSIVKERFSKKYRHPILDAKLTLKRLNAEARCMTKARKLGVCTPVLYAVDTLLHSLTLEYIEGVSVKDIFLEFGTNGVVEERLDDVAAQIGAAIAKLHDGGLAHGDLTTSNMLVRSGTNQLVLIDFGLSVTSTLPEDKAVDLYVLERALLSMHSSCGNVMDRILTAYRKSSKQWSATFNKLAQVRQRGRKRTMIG
T3 sequence 3: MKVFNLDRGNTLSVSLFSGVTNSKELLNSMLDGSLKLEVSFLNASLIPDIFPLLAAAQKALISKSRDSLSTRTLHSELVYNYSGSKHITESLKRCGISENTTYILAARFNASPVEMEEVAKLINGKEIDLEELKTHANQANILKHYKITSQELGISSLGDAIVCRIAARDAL
T3 sequence 4: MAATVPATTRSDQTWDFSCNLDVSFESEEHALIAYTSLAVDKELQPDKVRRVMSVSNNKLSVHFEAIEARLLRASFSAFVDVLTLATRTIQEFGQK

[4] = biological target: T4, KAE1 D298R;BUD32;CGI121;PCC1 (Arabidopsis thaliana;Arabidopsis …, UniProt O49653;Q94K14;Q6NMZ4;Q8GWD7 1-353;1-226;1-172;1-96, D298R|||)
T4 sequence 1: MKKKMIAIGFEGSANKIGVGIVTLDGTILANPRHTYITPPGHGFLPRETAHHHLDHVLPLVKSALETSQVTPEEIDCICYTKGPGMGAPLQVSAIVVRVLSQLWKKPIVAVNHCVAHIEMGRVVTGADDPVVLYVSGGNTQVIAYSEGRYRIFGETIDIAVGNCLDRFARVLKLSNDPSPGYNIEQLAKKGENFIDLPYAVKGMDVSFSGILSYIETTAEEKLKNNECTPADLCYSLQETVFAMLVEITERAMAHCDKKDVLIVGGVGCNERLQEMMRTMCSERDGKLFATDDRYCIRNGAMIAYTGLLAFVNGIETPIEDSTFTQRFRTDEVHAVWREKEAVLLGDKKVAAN
T4 sequence 2: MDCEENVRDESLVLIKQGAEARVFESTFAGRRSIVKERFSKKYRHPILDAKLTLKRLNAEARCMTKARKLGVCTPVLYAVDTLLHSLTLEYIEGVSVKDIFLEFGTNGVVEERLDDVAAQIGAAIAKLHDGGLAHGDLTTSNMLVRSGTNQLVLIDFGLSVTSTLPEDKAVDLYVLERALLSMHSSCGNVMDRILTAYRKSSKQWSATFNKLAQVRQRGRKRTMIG
T4 sequence 3: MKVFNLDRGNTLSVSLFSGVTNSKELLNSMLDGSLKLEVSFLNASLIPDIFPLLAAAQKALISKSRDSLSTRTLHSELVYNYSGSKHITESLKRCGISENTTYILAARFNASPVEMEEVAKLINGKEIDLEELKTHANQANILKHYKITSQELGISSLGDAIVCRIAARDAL
T4 sequence 4: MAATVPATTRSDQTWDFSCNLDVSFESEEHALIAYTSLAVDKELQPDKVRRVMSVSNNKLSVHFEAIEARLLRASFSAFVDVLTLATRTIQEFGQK

Measured: binding result

B1: 5'-6FAM-tRNAArgCCU (structured_RNA)
RNA: GCGCCUGUAGCUCAGUGGAUAGAGCGUCUGUUUCCUAAGCAGAAGGUCGUAGGUUCGACCCCUACCUGGCGCGCCA
binds: all assays above
